In publication PMC10317887, “Hypoglycaemia frequency and physiological response after double or triple doses of once-weekly insulin icodec vs once-daily insulin glargine U100 in type 2 diabetes: a randomised crossover trial” (Diabetologia, 2023):

Experiments:
[1] = tested on: glucagon; assay: Counterregulatory hormone response: plasma glucagon (ELISA); type: in vivo, human; settings: for Glucagon at PG3.0 mmol/l, estimated geometric mean / Glucagon at PGnadir, estimated geometric mean: plasma, subgroup
Procedure: (§1) Plasma concentrations of glucagon were measured by an enzyme-linked immunosorbent assay (Mercodia AB, Uppsala, Sweden). Plasma concentrations of adrenaline (epinephrine) and noradrenaline (norepinephrine) were measured by liquid chromatography-mass spectrometry (Thermo Fisher Scientific, Dreieich, Germany). Serum concentrations of cortisol and growth hormone were measured by electrochemiluminescent immunoassays (Roche Diagnostics, Mannheim, Germany).

[2] = tested on: individuals with type 2 diabetes; assay: Cognitive function: four-choice reaction time (4CRT) test; settings: for Change in 4CRT correctness at PG3.0 mmol/l, least-squares mean / Change in 4CRT response time at PG3.0 mmol/l, least-squares mean / Change in 4CRT correctness at PGnadir, least-squares mean / Change in 4CRT response time at PGnadir, least-squares mean: change from baseline, subgroup
Procedure: (§2) Hypoglycaemic response assessments were conducted at predefined PG levels during hypoglycaemia development and recovery (Fig. 1b). Hypoglycaemic symptoms score (HSS), hypoglycaemia awareness, counterregulatory hormones, vital signs and cognitive function tests were assessed at baseline (PG5.5 mmol/l), during hypoglycaemia development (PG3.9 mmol/l and PG3.0 mmol/l) and at PGnadir.
(§3) Cognitive function was assessed using the trail making B (TMB) test, the digit symbol substitution test (DSST) and the four-choice reaction time (4CRT) test. In the TMB test from the Halstead Reitan Neuropsychological Battery [16, 17], the participant connects 25 circles distributed on a chart in the correct sequence as quickly as possible. The circles contain a number (1–13) or a letter (A–L), and the correct sequence consists of alternating numbers and letters (i.e. 1–A–2–B–3 etc). The test result is the time needed to complete the task correctly. In the DSST, which is a subtest of the Wechsler Adult Intelligence Scale - Revised [18], nine digits are represented by nine different symbols. During 90 s, the participant is requested to write down the appropriate symbol for as many numbers as possible in a given array. The test result is the number of correct responses. […] In 100 cycles, the participant responds by pressing the corresponding position on a keypad. The test result has two components: percentage of correct answers and the mean response time.
(§4) Changes in HSS, vital signs and cognitive function tests from baseline (PG5.5 mmol/l) to PG3.0 mmol/l and to PGnadir were compared between insulin products at each of the two dose levels using the same approach as described for PGnadir, except that no logarithmic transformation was done and that the baseline value was included as a covariate. Least-squares means, treatment difference and 95% CI were derived.

[3] = tested on: growth hormone; assay: Counterregulatory hormone response: serum growth hormone (electrochemiluminescent immunoassay); type: in vivo, human; settings: for Growth hormone at PG3.0 mmol/l, estimated geometric mean / Growth hormone at PGnadir, estimated geometric mean: serum, subgroup; for Growth hormone at PGnadir, estimated geometric mean: n=19 icodec
Procedure: as §1

[4] = tested on: individuals with type 2 diabetes; assay: Continuous glucose monitoring (CGM) after double and triple doses
Procedure: In addition to self-measured PG, which was performed throughout the trial, and PG measurements performed at the clinical site, continuous glucose monitoring (CGM) was conducted from the first dose of the first treatment period until the end of the second treatment period (Dexcom G6; Dexcom, San Diego, CA, USA). CGM data were visible to the participants and the investigators but were not used for titration of basal insulin dose or for reporting hypoglycaemia.
CGM data were summarised from the time of double or triple dose until the next insulin administration (excluding the period of hypoglycaemia induction experiments), thereby eliminating any confounding effect of other insulin.

[5] = tested on: cortisol; assay: Counterregulatory hormone response: serum cortisol (electrochemiluminescent immunoassay); type: in vivo, human; settings: for Cortisol at PG3.0 mmol/l, estimated geometric mean / Cortisol at PGnadir, estimated geometric mean: serum, subgroup; for Cortisol at PGnadir, estimated geometric mean: n=19 icodec
Procedure: as §1

[6] = tested on: individuals with type 2 diabetes; assay: Vital signs during hypoglycaemia induction; settings: for Change in SBP at PG3.0 mmol/l, least-squares mean / Change in pulse at PG3.0 mmol/l, least-squares mean / Change in DBP at PGnadir, least-squares mean / Change in SBP at PGnadir, least-squares mean / Change in pulse at PGnadir, least-squares mean / Change in DBP at PG3.0 mmol/l, least-squares mean: change from baseline, subgroup
Procedure: Hypoglycaemic response assessments were conducted at predefined PG levels during hypoglycaemia development and recovery (Fig. 1b). Hypoglycaemic symptoms score (HSS), hypoglycaemia awareness, counterregulatory hormones, vital signs and cognitive function tests were assessed at baseline (PG5.5 mmol/l), during hypoglycaemia development (PG3.9 mmol/l and PG3.0 mmol/l) and at PGnadir. In addition, counterregulatory hormones and vital signs were assessed during recovery from hypoglycaemia at PG3.0 mmol/l, PG3.9 mmol/l and PG5.5 mmol/l.
Vital signs (diastolic blood pressure, systolic blood pressure and pulse) were measured after ≥5 min of rest in a supine position.
as §4

[7] = tested on: individuals with type 2 diabetes; assay: Hypoglycaemic symptoms score (HSS, Edinburgh Hypoglycaemia Scale) during hypoglycaemia induction; settings: for Change in HSS at PG3.0 mmol/l, least-squares mean: change from baseline PG5.5 mmol/l; for Change in HSS at PG3.0 mmol/l, least-squares mean / Change in HSS at PGnadir, least-squares mean: subgroup; for Change in HSS at PGnadir, least-squares mean: change from baseline
Procedure: as §2
The validated Edinburgh Hypoglycaemia Scale was used to determine hypoglycaemic symptoms, which were classified into 11 different autonomic, neuroglycopenic and non-specific symptoms of hypoglycaemia [14, 15]. The participant scored each of the 11 symptoms on a seven-point scale (1=‘not at all’, while 7=‘a great deal’). The total score was derived as 11 multiplied by the mean score for all symptoms.
as §4

[8] = tested on: individuals with type 2 diabetes; assay: Cognitive function: trail making B (TMB) test; settings: for Change in TMB at PG3.0 mmol/l, least-squares mean / Change in TMB at PGnadir, least-squares mean: change from baseline, subgroup
Procedure: as §2, §3, §4

[9] = double dose, n=17 icodec, 15 glargine U100
[10] = triple dose, listed as Insulin icodec
[11] = triple dose, n=20 icodec, 28 glargine U100
[12] = triple dose, n=20 icodec, 29 glargine U100
[13] = double dose, n=16 icodec, 15 glargine U100
[14] = double dose, n=18 icodec, 17 glargine U100
[15] = triple dose, n=19 icodec, 28 glargine U100
[16] = triple dose, n=20 icodec, 27 glargine U100
[17] = after double dose: first 2 weeks (icodec) / first 48 h (glargine U100), participants with clinically significant hypoglycaemia during induction
[18] = after triple dose: first week (icodec) / first 48 h (glargine U100), participants with clinically significant hypoglycaemia during induction
[19] = double dose, n=20 icodec, 19 glargine U100

## insulin icodec
[1]; double dose
  Glucagon at PG3.0 mmol/l, treatment ratio (95% CI) icodec vs glargine U100: 0.83 (0.59, 1.16)
  Glucagon at PGnadir, treatment ratio (95% CI) icodec vs glargine U100: 0.92 (0.69, 1.23)
[1]; [9]
  Glucagon at PG3.0 mmol/l, estimated geometric mean: 39.6 ng/L
[1]; double dose, n=19 icodec, 19 glargine U100
  Glucagon at PGnadir, estimated geometric mean: 48.9 ng/L
[1]; triple dose
  Glucagon at PGnadir, treatment ratio (95% CI) icodec vs glargine U100: 1.01 (0.74, 1.38)
[1]; [10]
  Glucagon at PG3.0 mmol/l, treatment ratio (95% CI) icodec vs glargine U100: 1.07 (0.86, 1.33)
[1]; triple dose, listed as icodec
  Glucagon at PG3.0 mmol/l, treatment ratio (95% CI) icodec vs glargine U100: 1.07
[1]; [11]
  Glucagon at PG3.0 mmol/l, estimated geometric mean: 55.2 ng/L
[1]; [12]
  Glucagon at PGnadir, estimated geometric mean: 59.8 ng/L
[2]; double dose
  Change in 4CRT correctness at PG3.0 mmol/l, treatment difference (95% CI) icodec vs glargine U100: 0.2 (-1.1, 1.4)
  Change in 4CRT correctness at PGnadir, treatment difference (95% CI) icodec vs glargine U100: -0.2 (-1.3, 0.9)
  Change in 4CRT response time at PG3.0 mmol/l, treatment difference (95% CI) icodec vs glargine U100: -79.7 (-170.4, 10.9)
  Change in 4CRT response time at PGnadir, treatment difference (95% CI) icodec vs glargine U100: -97.1 (-230.5, 36.3)
[2]; [13]
  Change in 4CRT correctness at PG3.0 mmol/l, least-squares mean: 0.1 %-points
  Change in 4CRT response time at PG3.0 mmol/l, least-squares mean: 19.7 ms
[2]; [14]
  Change in 4CRT correctness at PGnadir, least-squares mean: -0.3 %-points
  Change in 4CRT response time at PGnadir, least-squares mean: 40.4 ms
[2]; triple dose
  Change in 4CRT correctness at PG3.0 mmol/l, treatment difference (95% CI) icodec vs glargine U100: 0.1 (-0.7, 0.9)
  Change in 4CRT correctness at PGnadir, treatment difference (95% CI) icodec vs glargine U100: 0.4 (-0.9, 1.7)
  Change in 4CRT response time at PG3.0 mmol/l, treatment difference (95% CI) icodec vs glargine U100: 11.8 (-44.0, 67.6)
  Change in 4CRT response time at PGnadir, treatment difference (95% CI) icodec vs glargine U100: -66.7 (-155.8, 22.4)
[2]; [15]
  Change in 4CRT correctness at PGnadir, least-squares mean: -0.3 %-points
  Change in 4CRT response time at PGnadir, least-squares mean: 21.3 ms
[2]; [16]
  Change in 4CRT correctness at PG3.0 mmol/l, least-squares mean: -0.3 %-points
  Change in 4CRT response time at PG3.0 mmol/l, least-squares mean: 55.4 ms
[3]; double dose
  Growth hormone at PG3.0 mmol/l, treatment ratio (95% CI) icodec vs glargine U100: 0.89 (0.46, 1.75)
  Growth hormone at PGnadir, treatment ratio (95% CI) icodec vs glargine U100: 1.35 (0.94, 1.94)
[3]; [9]
  Growth hormone at PG3.0 mmol/l, estimated geometric mean: 3.6 µg/L
[3]; double dose, 19 glargine U100
  Growth hormone at PGnadir, estimated geometric mean: 4.7 µg/L
[3]; triple dose
  Growth hormone at PG3.0 mmol/l, treatment ratio (95% CI) icodec vs glargine U100: 1.54
  Growth hormone at PGnadir, treatment ratio (95% CI) icodec vs glargine U100: 1.10 (0.50, 2.43)
[3]; triple dose, 29 glargine U100
  Growth hormone at PGnadir, estimated geometric mean: 3.8 µg/L
[3]; [11]
  Growth hormone at PG3.0 mmol/l, estimated geometric mean: 3.7 µg/L
[4]; after double dose: first 2 weeks (icodec) / first 48 h (glargine U100), all participants
  Percentage time spent with glucose <3.9 mmol/l (CGM), mean±SD: 0.99±2.12%
[4]; after double dose: first 2 weeks (icodec) / first 48 h (glargine U100), all participants, induction period excluded
  Percentage time spent with glucose <3.0 mmol/l (CGM), mean±SD: 0.15±0.44%
[4]; [17]
  Percentage time spent with glucose <3.0 mmol/l (CGM), mean±SD: 0.21±0.45%
  Percentage time spent with glucose <3.9 mmol/l (CGM), mean±SD: 1.63±2.75%
[4]; after triple dose: first week (icodec) / first 48 h (glargine U100), all participants
  Percentage time spent with glucose <3.9 mmol/l (CGM), mean±SD: 1.56±3.54%
[4]; after triple dose: first week (icodec) / first 48 h (glargine U100), all participants, induction period excluded
  Percentage time spent with glucose <3.0 mmol/l (CGM), mean±SD: 0.29±1.24%
[4]; [18]
  Percentage time spent with glucose <3.0 mmol/l (CGM), mean±SD: 0.56±1.70%
  Percentage time spent with glucose <3.9 mmol/l (CGM), mean±SD: 2.67±4.71%
[5]; double dose
  Cortisol at PG3.0 mmol/l, treatment ratio (95% CI) icodec vs glargine U100: 1.60 (0.91, 2.80)
  Cortisol at PGnadir, treatment ratio (95% CI) icodec vs glargine U100: 0.99 (0.67, 1.45)
[5]; [9]
  Cortisol at PG3.0 mmol/l, estimated geometric mean: 245.9 nmol/L
[5]; double dose, 19 glargine U100
  Cortisol at PGnadir, estimated geometric mean: 296.0 nmol/L
[5]; triple dose
  Cortisol at PG3.0 mmol/l, treatment ratio (95% CI) icodec vs glargine U100: 1.64
  Cortisol at PGnadir, treatment ratio (95% CI) icodec vs glargine U100: 1.80
[5]; triple dose, 29 glargine U100
  Cortisol at PGnadir, estimated geometric mean: 355.0 nmol/L
[5]; [11]
  Cortisol at PG3.0 mmol/l, estimated geometric mean: 201.4 nmol/L
[6]; double dose
  Change in DBP at PG3.0 mmol/l, treatment difference (95% CI) icodec vs glargine U100: 1.7 (-3.1, 6.4)
  Change in DBP at PGnadir, treatment difference (95% CI) icodec vs glargine U100: 0.5 (-4.0, 4.9)
  Change in SBP at PG3.0 mmol/l, treatment difference (95% CI) icodec vs glargine U100: 3.7 (-4.3, 11.7)
  Change in SBP at PGnadir, treatment difference (95% CI) icodec vs glargine U100: -5.2 (-16.5, 6.1)
  Change in pulse at PG3.0 mmol/l, treatment difference (95% CI) icodec vs glargine U100: -0.9 (-7.4, 5.7)
  Change in pulse at PGnadir, treatment difference (95% CI) icodec vs glargine U100: 0.2 (-5.0, 5.4)
[6]; [9]
  Change in SBP at PG3.0 mmol/l, least-squares mean: -4.9 mmHg
  Change in pulse at PG3.0 mmol/l, least-squares mean: -1.3 beats/min
[6]; [19]
  Change in DBP at PGnadir, least-squares mean: -5.4 mmHg
  Change in SBP at PGnadir, least-squares mean: -7.7 mmHg
  Change in pulse at PGnadir, least-squares mean: 1.2 beats/min
[6]; double dose, supine, n=17 icodec, 15 glargine U100
  Change in DBP at PG3.0 mmol/l, least-squares mean: -6.1 mmHg
[6]; triple dose
  Change in DBP at PG3.0 mmol/l, treatment difference (95% CI) icodec vs glargine U100: 0.8 (-3.4, 5.0)
  Change in DBP at PGnadir, treatment difference (95% CI) icodec vs glargine U100: 3.6 (-0.8, 8.0)
  Change in SBP at PG3.0 mmol/l, treatment difference (95% CI) icodec vs glargine U100: 0.7 (-6.6, 8.0)
  Change in SBP at PGnadir, treatment difference (95% CI) icodec vs glargine U100: 3.9 (-2.2, 10.0)
  Change in pulse at PG3.0 mmol/l, treatment difference (95% CI) icodec vs glargine U100: 0.8 (-4.4, 5.9)
  Change in pulse at PGnadir, treatment difference (95% CI) icodec vs glargine U100: 0.5 (-4.8, 5.7)
[6]; [11]
  Change in DBP at PG3.0 mmol/l, least-squares mean: -2.4 mmHg
  Change in SBP at PG3.0 mmol/l, least-squares mean: -0.9 mmHg
  Change in pulse at PG3.0 mmol/l, least-squares mean: 3.1 beats/min
[6]; [12]
  Change in DBP at PGnadir, least-squares mean: -1.1 mmHg
  Change in SBP at PGnadir, least-squares mean: 1.8 mmHg
  Change in pulse at PGnadir, least-squares mean: 2.8 beats/min
[7]; double dose
  Change in HSS at PG3.0 mmol/l, treatment difference (95% CI) icodec vs glargine U100: 1.2 (-1.5, 4.0)
  Change in HSS at PGnadir, treatment difference (95% CI) icodec vs glargine U100: -0.3 (-4.0, 3.5)
[7]; [9]
  Change in HSS at PG3.0 mmol/l, least-squares mean: 1.8
[7]; [19]
  Change in HSS at PGnadir, least-squares mean: 6.0
[7]; triple dose
  Change in HSS at PGnadir, treatment difference (95% CI) icodec vs glargine U100: 0.5 (-2.7, 3.6)
[7]; [11]
  Change in HSS at PG3.0 mmol/l, least-squares mean: 2.2
[7]; [12]
  Change in HSS at PGnadir, least-squares mean: 5.4
[7]; [10]
  Change in HSS at PG3.0 mmol/l, treatment difference (95% CI) icodec vs glargine U100: -0.4 (-2.6, 1.8)
[7]; triple dose, listed as icodec
  Change in HSS at PG3.0 mmol/l, treatment difference (95% CI) icodec vs glargine U100: −0.4
[8]; double dose
  Change in TMB at PG3.0 mmol/l, treatment difference (95% CI) icodec vs glargine U100: 0.4 (-0.3, 1.0)
  Change in TMB at PGnadir, treatment difference (95% CI) icodec vs glargine U100: 0.3 (-0.2, 0.9)
[8]; [13]
  Change in TMB at PG3.0 mmol/l, least-squares mean: 0.3 s
[8]; double dose, n=18 icodec, 18 glargine U100
  Change in TMB at PGnadir, least-squares mean: 0.3 s
[8]; triple dose
  Change in TMB at PG3.0 mmol/l, treatment difference (95% CI) icodec vs glargine U100: -0.1 (-0.4, 0.2)
  Change in TMB at PGnadir, treatment difference (95% CI) icodec vs glargine U100: -0.1 (-0.3, 0.1)
[8]; [15]
  Change in TMB at PGnadir, least-squares mean: -0.0 s
[8]; triple dose, n=20 icodec, 26 glargine U100
  Change in TMB at PG3.0 mmol/l, least-squares mean: -0.0 s
